# Test results from the supplement of paper PMC6757056.
# ± gives the standard deviation of the averaged measurements.
# B1: library; a variant is named by its letters at N, in order (parent)
# chain: GCUGUCACCGAGAAACUGUGAAGUAUAUCUUAAACCUGGGCACUUAAAAGAUAUAUGGAGUUAGUAGUGCAACCUGCUCGGUCUGAUGAGUCCNNNNNNGGACGAAACAGC
# Legend:
# [1] = variants of: B1; assay: normalized RNA/DNA level without ligand (relative to sTRSVctl = 100) (log10 (% of sTRSVctl)); HEK293T; ligand: cyclic di-GMP (c-di-GMP-II aptamer); higher = less ribozyme self-cleavage, higher mRNA level; conditions: reporter: mCherry (pCS4076), ligand present: no
# How it was run: (§1)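 Total RNA, extracted with EDTA 72 h after HEK293T cells were transfected with 4 µg per 6-well well of reporter-linked ribozyme switch library plasmids, was reverse-transcribed, amplified, barcoded and sequenced. Ligand, if used, was added 1 h before transfection. RNA level was derived from RNA reads divided by DNA reads and normalized to a spiked-in non-cleaving sequence or to the top sequences. This was multiplied by 100 and log10-transformed, with the top set of 25 sequences and a ≥100 DNA read minimum.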
# [2] = variants of: B1; assay: normalized RNA/DNA level with ligand (relative to sTRSVctl = 100) (log10 (% of sTRSVctl)); HEK293T; ligand: cyclic di-GMP (c-di-GMP-II aptamer); ligand concentration (+) RNA-Seq: 1 mM; higher = less ribozyme self-cleavage, higher mRNA level; conditions: reporter: mCherry (pCS4076), ligand present: yes
# How it was run: as §1
Variant,normalized RNA/DNA level without ligand (log10) [1],normalized RNA/DNA level with ligand (log10) [2]
CGUGGG,1.62 ± 0.058,1.8 ± 0.073
CGUGGU,1.74 ± 0.021,1.87 ± 0.076
CGUGGC,1.748 ± 0.0072,1.85 ± 0.15
UGUACG,1.792 ± 0.0062,1.87 ± 0.032
UGUACA,1.778 ± 0.0071,1.88 ± 0.095
GGUUAC,1.76 ± 0.057,1.87 ± 0.033
GGUUAU,1.64 ± 0.049,1.8 ± 0.2
GGUUAA,1.54 ± 0.11,1.67 ± 0.029
GGUUAG,1.54 ± 0.062,1.7 ± 0.08
UGUGUU,1.665 ± 0.0047,1.82 ± 0.16
UGUGUA,1.61 ± 0.045,1.74 ± 0.072
UGUGUG,1.69 ± 0.053,1.86 ± 0.056
UGUGUC,1.756 ± 0.0091,1.86 ± 0.1
GGUAAG,1.49 ± 0.12,1.65 ± 0.098
GGUAAU,1.61 ± 0.039,1.72 ± 0.037
GGUAAA,1.441 ± 0.0091,1.62 ± 0.13
GGUAAC,1.743 ± 0.0073,1.85 ± 0.077
CGGGCC,1.92 ± 0.02,1.95 ± 0.067
CGGGCU,1.84 ± 0.033,1.92 ± 0.14
CGGGCA,1.81 ± 0.064,1.9 ± 0.13
CGGGCG,1.83 ± 0.066,1.94 ± 0.092
UGUGCA,1.77 ± 0.02,1.87 ± 0.073
UGUGCC,1.85 ± 0.074,1.94 ± 0.14

Variant,normalized RNA/DNA level without ligand (log10) [1],normalized RNA/DNA level with ligand (log10) [2]
UGUGCU,1.71 ± 0.071,1.87 ± 0.089
UGUGCG,1.804 ± 0.0083,1.93 ± 0.059
AGGGAU,1.54 ± 0.084,1.74 ± 0.086
AGGGAC,1.55 ± 0.12,1.7 ± 0.16
GGUAUU,1.61 ± 0.056,1.8 ± 0.11
GGUAUA,1.5 ± 0.066,1.72 ± 0.025
GGUAUG,1.59 ± 0.093,1.74 ± 0.04
GGGUGC,1.749 ± 0.006,1.85 ± 0.093
CGGUGC,1.785 ± 0.007,1.9 ± 0.12
CGGUGG,1.66 ± 0.066,1.79 ± 0.1
AGUGAU,1.671 ± 0.003,1.81 ± 0.12
AGUGAG,1.52 ± 0.11,1.67 ± 0.13
AGGGUG,1.64 ± 0.046,1.7 ± 0.12
AGGGUU,1.6902 ± 0.0014,1.77 ± 0.056
AGGGUA,1.53 ± 0.035,1.6 ± 0.12
AGGGUC,1.71 ± 0.07,1.85 ± 0.18
UGUCUG,1.736 ± 0.0044,1.88 ± 0.08
UGUCUA,1.71 ± 0.037,1.84 ± 0.15
UGUCUC,1.79 ± 0.0075,1.88 ± 0.087
UGUCUU,1.73 ± 0.0071,1.88 ± 0.1
GGGUUC,1.79 ± 0.072,1.89 ± 0.12
UGGUGC,1.72 ± 0.053,1.86 ± 0.099
UGGUGU,1.6 ± 0.11,1.81 ± 0.063

Variant,normalized RNA/DNA level without ligand (log10) [1],normalized RNA/DNA level with ligand (log10) [2]
UGGUGG,1.68 ± 0.017,1.81 ± 0.12
GGUCUA,1.52 ± 0.046,1.72 ± 0.039
GGUCUU,1.64 ± 0.039,1.79 ± 0.13
GGUCUC,1.73 ± 0.075,1.87 ± 0.12
GGGUAU,1.75 ± 0.041,1.9 ± 0.23
GGGUAC,1.73 ± 0.012,1.8 ± 0.045
GGGUAG,1.85 ± 0.057,1.89 ± 0.059
GGGUAA,1.61 ± 0.091,1.7 ± 0.12
AGUACU,1.7515 ± 2.5e-05,1.85 ± 0.089
AGUACA,1.51 ± 0.038,1.67 ± 0.059
AGUACG,1.58 ± 0.046,1.74 ± 0.065
AGUACC,1.66 ± 0.018,1.86 ± 0.15
GGUGAC,1.75 ± 0.0083,1.86 ± 0.14
GGUGAU,1.67 ± 0.041,1.76 ± 0.057
GGUGAA,1.34 ± 0.076,1.61 ± 0.07
UGUGAA,1.658 ± 0.012,1.85 ± 0.078
UGUGAG,1.7 ± 0.038,1.87 ± 0.07
CGGGUU,1.748 ± 0.012,1.82 ± 0.13
UGGGGU,1.63 ± 0.056,1.77 ± 0.11
UGGGGG,1.79 ± 0.055,1.87 ± 0.09
UGGGGA,1.58 ± 0.085,1.73 ± 0.073
UGGGGC,1.767 ± 0.012,1.91 ± 0.1
AGUUAA,1.52 ± 0.08,1.68 ± 0.086

Variant,normalized RNA/DNA level without ligand (log10) [1],normalized RNA/DNA level with ligand (log10) [2]
AGUUAC,1.7078 ± 0.0015,1.85 ± 0.15
CGUGAG,1.7 ± 0.026,1.83 ± 0.05
UGUGGA,1.58 ± 0.067,1.76 ± 0.062
UGUGGU,1.667 ± 0.012,1.81 ± 0.065
UGUGGC,1.742 ± 0.0053,1.89 ± 0.082
AGGUUG,1.7 ± 0.022,1.77 ± 0.1
AGGUUU,1.7 ± 0.04,1.85 ± 0.11
AGGUUC,1.75 ± 0.026,1.86 ± 0.14
AGGUUA,1.54 ± 0.037,1.64 ± 0.18
GGUGGC,1.68 ± 0.03,1.83 ± 0.076
GGUGGA,1.55 ± 0.11,1.7 ± 0.065
UGUCCA,1.8 ± 0.013,1.87 ± 0.068
UGUCCG,1.856 ± 0.0053,1.95 ± 0.042
UGUCCC,1.81 ± 0.072,1.88 ± 0.17
CGUCGG,1.7 ± 0.039,1.81 ± 0.13
CGUCGC,1.76 ± 0.024,1.87 ± 0.16
CGUCGU,1.78 ± 0.061,1.9 ± 0.13
CGUCUG,1.727 ± 0.015,1.83 ± 0.064
UGGUAG,1.66 ± 0.035,1.82 ± 0.13
UGGUAA,1.56 ± 0.095,1.79 ± 0.096
UGGUAC,1.684 ± 0.015,1.83 ± 0.092
UGGUAU,1.661 ± 0.013,1.82 ± 0.13
CGUAAG,1.77 ± 0.056,1.86 ± 0.12

Variant,normalized RNA/DNA level without ligand (log10) [1],normalized RNA/DNA level with ligand (log10) [2]
CGUAAC,1.557 ± 0.0076,1.72 ± 0.091
UGUUAC,1.735 ± 0.0055,1.91 ± 0.14
UGUUAA,1.693 ± 0.01,1.85 ± 0.09
UGUUAG,1.74 ± 0.03,1.86 ± 0.14
AGGUCU,1.73 ± 0.045,1.85 ± 0.14
AGGUCG,1.738 ± 0.013,1.82 ± 0.11
AGGUCC,1.86 ± 0.022,1.94 ± 0.08
AGGUGC,1.75 ± 0.037,1.82 ± 0.11
AGGUGU,1.66 ± 0.041,1.77 ± 0.06
AGGUGG,1.69 ± 0.031,1.78 ± 0.12
AGUAUU,1.68 ± 0.037,1.83 ± 0.1
AGUAUA,1.47 ± 0.015,1.69 ± 0.11
AGUAUG,1.54 ± 0.085,1.75 ± 0.087
AGUAUC,1.68 ± 0.022,1.81 ± 0.13
CGUAUG,1.73 ± 0.019,1.86 ± 0.13
CGUAUC,1.58 ± 0.045,1.76 ± 0.098
CGUAUU,1.33 ± 0.083,1.57 ± 0.11
GGUACA,1.52 ± 0.034,1.73 ± 0.051
GGUACC,1.82 ± 0.038,1.93 ± 0.12
GGUACU,1.71 ± 0.067,1.82 ± 0.16
GGUACG,1.661 ± 0.0037,1.821 ± 0.013
AGUAGC,1.618 ± 0.0046,1.8 ± 0.12
AGUCUU,1.726 ± 0.0047,1.84 ± 0.11
